Source: article PMC2972665 (Biochemistry, 2010)

Biological target: the molecule itself
Experiment: AUC

B1: Wild type SgrAI (enzyme, Streptomyces griseus, UniProt Q9F6L0 1-339, looked up)
chain: MPFTYSIEATRNLATTERCIQDIRNAPVRNRSTQFQLAQQNMLAYTFGEVIPGFASAGINGMNYRDVIGRPVENAVTEGTHFFRDDFRVDSNAKAKVAGDIFEIVSSAVMWNCAARWNSLMVGEGWRSQPRYSRPTLSPSPRRQVAVLNLPRSFDWVSLLVPESQEVIEEFRAGLRKDGLGLPTSTPDLAVVVLPEEFQNDEMWREEIAGLTRPNQILLSGAYQRLQGRVQPGEISLAVAFKRSLRSDRLYQPLYEANVMQLLLEGKLGAPKVEFEVHTLAPEGTNAFVTYEAASLYGLAEGRSAVHRAIRELYVPPTAADLARRFFAFLNERMELVNG
stoichiometry N: 2 SgrAI chains in the DNA bound dimer
